Measurements published in article PMC3050080.

Key:
SXL RRM12 = target: T1, SXL RRM12 (UniProt P19339 122-294); experiment: fluorescence anisotropy
T1 sequence: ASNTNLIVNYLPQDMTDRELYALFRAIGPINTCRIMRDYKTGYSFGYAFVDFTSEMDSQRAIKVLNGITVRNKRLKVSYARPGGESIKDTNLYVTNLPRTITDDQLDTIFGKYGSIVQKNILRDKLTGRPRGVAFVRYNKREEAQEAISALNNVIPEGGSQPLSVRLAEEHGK

TIA-1 RRM23 = target: T2, TIA-1 RRM23 (UniProt P31483 104-288); experiment: fluorescence anisotropy
T2 sequence: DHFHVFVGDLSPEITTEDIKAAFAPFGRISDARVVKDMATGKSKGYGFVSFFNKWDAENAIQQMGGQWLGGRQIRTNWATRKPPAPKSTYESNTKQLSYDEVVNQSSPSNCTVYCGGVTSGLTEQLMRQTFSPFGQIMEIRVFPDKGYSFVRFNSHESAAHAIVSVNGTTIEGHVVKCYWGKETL

In the case of UUUUUUUUUUUUUUUUUUUU (ssRNA) [U20], the Kd (SXL RRM12) is reported as 7 ± 3 nM and the Kd (TIA-1 RRM23) is reported as 33 ± 6 nM.
